Assays:
[1] = target: SARS-CoV-2 Beta receptor binding domain (SARS-CoV-2, Beta variant (B.1.351), K417N | E484K | N501Y, biotin (EZ-Link Sulfo-NHS-LC-Biotin, average of four biotins per RBD molecule)); assay: BLI; details: both partners purified
[2] = target: SARS-CoV-2 Delta receptor binding domain (SARS-CoV-2, Delta variant (B.1.617.2), L452R | T478K, biotin (EZ-Link Sulfo-NHS-LC-Biotin, average of four biotins per RBD molecule)); assay: BLI; details: both partners purified

B1: ADI-81654 (Fab, V domains shown)
VH: QVQLKQSGPTLVKPTQTLTLTCTFSGFSLSTYGVGVGWIRQPPGKALEWLALIYYDDDKRYSPSLKSRLTITKDTSQNQVVLTMTNMDPVDTATYYCARHTIATIFDFDSWGQGTLVTVSS
VL: QSVLTQPASVSGSPGQSITISCTGTSSDVGGHNYVSWYQQHPGKAPKLMIYEVSNRPSGVSNRFSGSKSGNTASLTISGLQAEDEADYSCSSYASSTSPVVFGGVTKLTVL
Kd [1]: 2.56 nM | Kd [2]: 1.83 nM
